The text below walks through data of PMC12412624, “Engineered Cas12j‐8 is a Versatile Platform for Multiplexed Genome Modulation in Mammalian Cells”.

In series [1] the test system is T1, dCas12j-8 D313R D313R;D369A;E567A;D658A (bacteriophage (metagenome)).
T1 sequence: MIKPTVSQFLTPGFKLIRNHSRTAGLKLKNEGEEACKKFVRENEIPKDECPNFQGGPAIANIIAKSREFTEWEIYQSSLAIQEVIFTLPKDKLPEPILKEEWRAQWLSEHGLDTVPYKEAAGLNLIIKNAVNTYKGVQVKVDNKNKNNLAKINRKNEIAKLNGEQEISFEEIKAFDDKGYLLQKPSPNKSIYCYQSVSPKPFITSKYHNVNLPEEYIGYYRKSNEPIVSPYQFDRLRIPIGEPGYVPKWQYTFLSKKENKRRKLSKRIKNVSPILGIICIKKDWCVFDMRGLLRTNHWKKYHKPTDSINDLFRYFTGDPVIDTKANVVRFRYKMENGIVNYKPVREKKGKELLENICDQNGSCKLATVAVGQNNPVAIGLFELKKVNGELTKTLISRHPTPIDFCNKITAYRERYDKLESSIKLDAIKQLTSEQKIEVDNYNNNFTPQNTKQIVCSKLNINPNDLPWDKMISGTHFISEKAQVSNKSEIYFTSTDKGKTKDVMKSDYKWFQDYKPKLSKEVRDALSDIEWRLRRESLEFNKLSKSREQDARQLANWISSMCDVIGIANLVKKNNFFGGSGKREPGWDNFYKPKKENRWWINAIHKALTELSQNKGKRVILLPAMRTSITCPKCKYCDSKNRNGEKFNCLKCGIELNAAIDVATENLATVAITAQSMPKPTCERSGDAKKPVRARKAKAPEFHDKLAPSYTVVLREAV
The settings on record: HEK293T cells; panel 1c (compare within a panel only); scale: mean GFP / mean GFP of wild type, printed, no background subtraction.

In series [2] the test system is T2, dCas12j-8 E242R E242R;D369A;E567A;D658A (bacteriophage (metagenome)).
T2 sequence: T1 sequence with E242R, R313D
The settings on record: HEK293T cells; panel 1c (compare within a panel only); scale: mean GFP / mean GFP of wild type, printed, no background subtraction.

Series [3] relates to T3, dCas12j-8 E258R+D313R+D495R E258R;D313R;D495R;D369A;E567A;D658A (bacteriophage (metagenome)).
T3 sequence: T1 sequence with E258R, D495R
The settings on record: HEK293T cells; panel 1e (compare within a panel only); scale: mean GFP / mean GFP of wild type, printed, no background subtraction.

Series [4] has as its system T4, dCas12j-8 E258R+D313R+D527R E258R;D313R;D527R;D369A;E567A;D658A (bacteriophage (metagenome)).
T4 sequence: T1 sequence with E258R, D527R
The settings on record: HEK293T cells; panel 1e (compare within a panel only); scale: mean GFP / mean GFP of wild type, printed, no background subtraction.

Substitutions are numbered along the chain they refer to.

On to “CUUUCAAGACUAAUAGAUUGCUCCUUACGAGGAGACACUCCCUAUCAGUGAUAGAG / TTNACTCCCTATCAGTGATAGAG / CTCTATCACTGATAGGGAGTNAA [TetO]”, for which the binding signal in series [1] came out at 1.59; in series [2], 0.683; in series [3] it was 4.66; in series [4], 5.09.
